Experiments:
[1] = molecular target: T1, 4Ig-domain of Neogenin (His-4Ig) (Gallus gallus, UniProt Q90610); assay: Pull-down assay with peptide-coated beads; format: binding; details: Western blot with anti-His
T1 construct: 6-His (N); myc (C); 6-His (C); made in house
T1 sequence (Q90610 1-383): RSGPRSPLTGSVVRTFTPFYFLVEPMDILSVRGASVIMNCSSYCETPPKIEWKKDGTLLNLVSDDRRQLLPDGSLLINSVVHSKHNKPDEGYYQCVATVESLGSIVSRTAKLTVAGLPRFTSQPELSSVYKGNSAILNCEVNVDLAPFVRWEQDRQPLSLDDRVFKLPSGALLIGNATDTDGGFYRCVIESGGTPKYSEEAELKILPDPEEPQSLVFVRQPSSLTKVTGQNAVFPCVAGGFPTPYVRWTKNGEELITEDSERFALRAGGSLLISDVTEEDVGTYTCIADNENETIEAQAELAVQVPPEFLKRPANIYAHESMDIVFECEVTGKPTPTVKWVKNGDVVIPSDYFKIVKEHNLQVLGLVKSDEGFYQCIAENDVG
Experimental: (A) RGMa proteins were incubated on plates coated with 4Ig- or 6FNIII-AP. One C- and one N-RGMa domain (N-RGMa^77-113) interacted with 6FNIII. One N-RGMa domain (N-Raft) interacted with 4Ig. (B) Supernatants (Sup) from cells expressing His-6FNIII or His-4Ig, were pulled down (IP) with beads coated with N-Raft, N-RGMa^50-99, and N-inh. Western Blot was then performed with an anti-His antibody to reveal whether or not His-6FNIII or His-4Ig interacted with the coated beads. […] Data are average±SEM (n=3 independent experiments), *p<0.0001. Scale bar, 100 μm. (E) Chick brains were injected with control peptide (Ctrl; N-RGMa^50-99), 4Ig, N-Raft, or Noggin 1 day before preparing membrane fractionations. In control experiments, Neogenin localized to the Flotillin/RGMa-containing lipid raft fraction (as shown in solid lined boxes). 4Ig, N-Raft, or Noggin shifted Neogenin to heavy fractions.
Proteins were coupled to activated CNBr Sepharose beads (Pharmacia) according to supplier instructions. Supernatants from transfected cells were added to coupled beads for 2 h at room temperature (RT). Beads were then washed 6× with PBS plus 0.02% Tween 20, and SDS loading buffer was added. Samples were boiled and subjected to Western blotting.

[2] = test system: photoreceptor cells; assay: Photoreceptor survival in rd1 mice (retinitis pigmentosa model); format: in vivo, mouse
Experimental: The rd1 mouse model is a model for human RP and carried a loss-of-function mutation in the gene encoding for the β-subunit of the rod photoreceptor cGMP phosphodiesterase-6.2. This loss-of-function mutation led to an accumulation of cGMP, which caused photoreceptor cell death.
In these studies, intraocular injection of the 4Ig (2 μg/μl) peptide at P9 and P15 was performed and animals were sacrificed at P21 to examine cell survival. […] Injection of 4Ig increased outer nuclear layer (ONL) thickness to about 6 cells (FIG. 19). This measurement was the average thickness of the ONL.
As described above, cholesterol depletion removes lipid rafts. Specifically, mice were treated with daily […] (IP) injections of MβCD from P9 to P21.
To examine the effect of reducing cholesterol synthesis on cell survival, AY-9944 was examined in rd1 mice (FIGS. 20 and 21). Rd1 mice were treated using two intra-peritoneal injections of AY-9944, at P9 and P15 and sacrificed at P21.

[3] = test system: brain after stroke; assay: Cerebral focal ischemia model (MCA clot occlusion); format: in vivo, rat; details: daily injections
Experimental: In all experiments, female Sprague-Dawley rats weighing 200-250 g were used. Briefly, focal cerebral ischemia was induced by injection of a preformed clot into the MCA. The rats were initially anesthetized with 3.0% isoflurane and then maintained with 1.5% isoflurane in a mixture of 30:70 O2 and […] with a face mask during surgery. Body temperature was maintained at 37° C. in the normothermic rats with a heating pad for the duration of surgery and in the immediate postoperative period until the animal was fully recovered from anesthesia.
A 1.5-cm longitudinal incision was made in the midline of the ventral cervical skin. The right common carotid artery (CCA), right internal carotid artery (ICA), and right external carotid artery (ECA) were exposed. The distal portion of the ECA was ligated and cut. A modified polyethylene-10 catheter, filled with bovine thrombin (Thrombostat, TM Warner-Lambert Co.), was introduced into the lumen of the right ECA via a small puncture. Ten micro liters of blood was withdrawn into the catheter and retained for 15 minutes to allow formation of a clot. […] After returning to their cage, animals were monitored for normal recovery.
The infarct volume was expressed as a percentage of the total volume from the ipsilateral hemisphere. Brain edema was determined by calculating the volume difference between the 2 hemispheres and dividing by the volume of the left hemisphere.
Briefly, 7 days after MCA occlusion the anesthetized rats were killed. […] The images were analyzed and the determination of infarct volume and edema was blinded. The infarct volume was calculated using the following formula: Infarct volume=[left hemisphere volume−(the right hemisphere volume−measured infarct volume)]/left hemisphere volume.
Brain swelling was determined using the following formula: Swelling (edema)=(right hemisphere volume−left hemisphere volume)/left hemisphere volume. […]
Briefly, neurological deficits were determined using a modified Bederson's scoring system. […] Mortality was also recorded. […]

[4] = intraocular injection at P9 and P15

Molecule: N-Raft: peptide spanning amino acids 28-73 of RGMa (SEQ ID NO:2) (SPCKILKCNSEFWAATSGSHHLGAEETPEFCTALRAYAHCTRRTAR; N-Raft - amino acids 28-73 of RGMa)
- pull-down of 4Ig-domain by peptide-coated beads [1]: pulled down

Molecule: methyl-β-cyclodextrin [MβCD, reference compound]
- average depth of the ONL ([2]; daily injections P9 to P21): about 6 cells
- increase in the average thickness of the ONL ([2]; daily injections P9 to P21): three-fold
- photoreceptor survival ([2]; daily injections P9 to P21): photoreceptor survival was improved
- number of rods within the Outer Nuclear Layer (anti-Rhodopsin) ([2]; injected at P9, P21): dramatic increase in the number of rods

B1: 4Ig: four immunoglobulin-like domains of Neogenin, amino acids 1 to 383 of Accession No. AAC59662 (SEQ ID NO:1) (protein, listed as Gallus gallus)
chain: RSGPRSPLTGSVVRTFTPFYFLVEPMDILSVRGASVIMNCSSYCETPPKIEWKKDGTLLNLVSDDRRQLLPDGSLLINSVVHSKHNKPDEGYYQCVATVESLGSIVSRTAKLTVAGLPRFTSQPELSSVYKGNSAILNCEVNVDLAPFVRWEQDRQPLSLDDRVFKLPSGALLIGNATDTDGGFYRCVIESGGTPKYSEEAELKILPDPEEPQSLVFVRQPSSLTKVTGQNAVFPCVAGGFPTPYVRWTKNGEELITEDSERFALRAGGSLLISDVTEEDVGTYTCIADNENETIEAQAELAVQVPPEFLKRPANIYAHESMDIVFECEVTGKPTPTVKWVKNGDVVIPSDYFKIVKEHNLQVLGLVKSDEGFYQCIAENDVGNAQAGAQLIILDLDVAIPTLPPTSLTSATNDHLAPATTGPLPTAPRDVVATLVSTRFIRLTWRTPVSDPQGDNLTYSIFYTKEGINRERVENTSRPGETQVMIQNLMPETVYVFRVVAQNKHGHGESSAPLKVATQPEVQLPGPAPNIRAYAGSPTSVTVTWETPLSGNGEIQNYKLYYMEKGQDSEQDVDVAGLSYTITGLKKYTEYSFRVVAYNKHGPGVSTQDVVVRTLSDVPSAAPQNLTLEARNSKSIMLHWQPPPAGTHSGQITGYKIRYRKVSRKSDVTESVGGTQLFQLIEGLERGTEYNFRIAAMTVNGTGPATDWVSAETFESDLDESRVPEVPSSLHVRPLVTSIVVSWTPPENQNIVVRGYAIGYGIGSPHAQTIKVDYKQRYYTIENLDPSSHYVITLKAFNNVGEGIPLYESAVTRPHSDTSEVDLFVINAPYTPVPDPSPMMPPVGVQASILSHDTIRITWADNSLPKNQKITDARYYTVRWKTNIPANTKYKTANATTLSYLVTGLKPNTLYEFSVMVTKGRRSSTWSMTAHGTTFELVPTSPPKDVTVVSKEGKPRTIIVNWQPPSEANGKITGYIIYYSTDVNAEIHDWVIEPVVGNRLTHQIQELTLDTPYYFKIQARNSKGMGPMSEAVQFRTPKAESSDKMPNDQASGSAGKGSRPVDVGPDYKPPLSGSNSPHGSPTSPLDSNMLLVIIVSVGVITIVIVVIVAVFCTRRTTSHQKKKRAACKSVNGSHKYKGNSKDVKPPDLWIHHERLELKPIDKSPDPNPIMTDTPIPRNSQDITPVDNSMDSNIHQRRNSYRGHESEDSMSTLAGRRGMRPKMMMPFDSQPPQPVISAHPIHSLDNPHHHFHSGSLASPTRSYLHHQVSPWPVGTSMSHSDRANSTESVRNTPSSDTMPASSSQPCADHQDPDSSSGAYLGSAQEEDAAQSLPTAHVRPSHPLKSFAVPAVPAAGSAYDPTLPSTPLLTQQAPSHPVHSVKTASIGTLGRTRPPMPVVVPSAPDVQETTRMLEDSESSYEPDELTKEMAHLEGLMKDLNAITTA
modifications: Neogenin - Accession No. AAC59662
- brain edema compared to control [3]: significantly reduced
- infarct volume compared to control [3]: significantly reduced
- behavioral deficits compared to control ([3]; Bederson test): significantly reduced
- outer nuclear layer (ONL) thickness ([2]; intraocular injection 2 μg/μl at P9 and P15, P21, control about 2 cells): about 6 cells
- increase of ONL thickness compared to control mice [2, 4]: more than three-fold
- number of photoreceptors within the retina vs control [2, 4]: significantly improved the number of photoreceptors
